Measured values published in patent US20190023766A1 (published 2019).
Each block holds one molecule with its values, some of them ahead of it.

Key:
[1] = target: IL-15Rβγc receptors on 32Dβ cells (hIL-15Rβ and murine γC chains) (human; mouse) (UniProt P14784); assay: cell-based or functional assay
[2] = target: OVA (aa257-264) peptide/H-2Kb complex, soluble (HRP tetramer or biotinylated complex on a streptavidin chip) (mouse) (UniProt P01901); assay: SPR (BIAcore 2000), biotinylated pMHCI on streptavidin chip
[3] = target: OVA (aa257-264) peptide/H-2Kb complex, soluble (HRP tetramer or biotinylated complex on a streptavidin chip) (mouse) (UniProt P01901); assay: SPR (BIAcore 2000), biotinylated pMHCI on streptavidin chip, apparent KD
[4] = target: T1, IL-15Rβγc receptors on 32Dβ cells (hIL-15Rβ and murine γC chains) (human; mouse, UniProt P14784 27-551; P34902 23-369); assay: cell-based or functional assay
T1 sequence (looked up) 1: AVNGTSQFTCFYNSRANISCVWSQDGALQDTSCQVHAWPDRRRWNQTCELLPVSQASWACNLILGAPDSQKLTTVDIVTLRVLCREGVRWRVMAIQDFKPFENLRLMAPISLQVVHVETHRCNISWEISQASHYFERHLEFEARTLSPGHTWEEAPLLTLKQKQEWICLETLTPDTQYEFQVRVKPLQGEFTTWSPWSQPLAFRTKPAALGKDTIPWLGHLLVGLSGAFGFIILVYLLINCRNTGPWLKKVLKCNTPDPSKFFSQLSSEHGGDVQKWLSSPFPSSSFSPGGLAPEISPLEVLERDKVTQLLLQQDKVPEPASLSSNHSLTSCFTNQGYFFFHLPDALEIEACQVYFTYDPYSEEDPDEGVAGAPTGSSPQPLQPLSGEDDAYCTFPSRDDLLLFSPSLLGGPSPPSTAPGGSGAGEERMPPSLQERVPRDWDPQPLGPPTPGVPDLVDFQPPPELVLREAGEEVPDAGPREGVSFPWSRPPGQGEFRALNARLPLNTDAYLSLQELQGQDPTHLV
T1 sequence (looked up) 2: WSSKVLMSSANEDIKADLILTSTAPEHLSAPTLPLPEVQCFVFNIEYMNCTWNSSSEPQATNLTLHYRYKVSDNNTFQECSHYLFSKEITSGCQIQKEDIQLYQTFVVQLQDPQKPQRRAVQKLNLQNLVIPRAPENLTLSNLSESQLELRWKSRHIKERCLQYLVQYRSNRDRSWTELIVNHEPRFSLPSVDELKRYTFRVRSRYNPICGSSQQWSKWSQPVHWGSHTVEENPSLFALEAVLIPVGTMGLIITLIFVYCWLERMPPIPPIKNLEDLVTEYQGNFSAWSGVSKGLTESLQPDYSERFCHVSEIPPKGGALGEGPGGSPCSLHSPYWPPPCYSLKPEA

Chain of OVA (aa257-264) peptide/H-2Kb complex, soluble (HRP tetramer or biotinylated complex on a streptavidin chip) (mouse) (P01901 22-305, one chain of several): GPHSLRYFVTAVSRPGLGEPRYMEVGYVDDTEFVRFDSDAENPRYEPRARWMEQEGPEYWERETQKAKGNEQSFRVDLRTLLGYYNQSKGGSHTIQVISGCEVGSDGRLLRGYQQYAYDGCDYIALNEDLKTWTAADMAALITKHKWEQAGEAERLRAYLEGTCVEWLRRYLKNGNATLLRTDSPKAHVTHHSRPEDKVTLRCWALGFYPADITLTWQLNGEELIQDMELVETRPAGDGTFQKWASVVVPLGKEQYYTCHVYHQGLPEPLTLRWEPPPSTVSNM

Molecule: c264scTCR dimer (c264scTCR/hIL-15:c264scTCR/hIL-15RαSu/birA complex) (from UniProt P40933 49-162)
EC50, 32Dβ cell proliferation [1]: 0.3 nM

Molecule: OT1scTCR dimer (OT1scTCR/hIL-15:OT1scTCR/hIL-15RαSu/birA complex) (from UniProt P40933 49-162)
Kd [3]: 30000 nM

Molecule: c264scTCR/hIL-15 fusion protein (from UniProt P40933 49-162)
EC50, 32Dβ cell proliferation [1]: 0.3 nM

B1: IL-15N72D:IL-15RαSu/Fc complex (Alt-803), co-expressed and purified (Fc fusion)
chain 1: PEAAGG
chain 2: PELLGG
EC50, 32Dβ cell proliferation [4]: 0.0156 nM

The remaining lines, values ahead:

Kd [2]: 2600 nM
Molecule: OT1scTCR/scCD8 heterodimer (OT1scTCR/hIL-15:scCD8/hIL-15RαSu/birA complex) (from UniProt P40933 49-162; P01731 28-196; P10300 22-175)

EC50, 32Dβ cell proliferation [4]: 0.0158 nM
B2: in vitro assembled IL-15N72D:IL-15RαSu/Fc complex (IL-15N72D:IL-15RαSu/Fc IVA) (Fc fusion)
chain 1: PEAAGG
chain 2: PELLGG
